Assay [1] deals with PHF-tau (human) (UniProt P10636). Description: competition ELISA on captured PHF-tau; biotinylated AT8, unlabeled competitor AT120 at 10 ug/ml. On the technique in general: In an ELISA, binding on a coated surface is turned into a signal by an enzyme label.
Assay [2] shares this target. Kind of assay: competition ELISA on captured PHF-tau; biotinylated AT8, unlabeled competitor AT8 at 10 ug/ml.
Assay [3] shares this target. Kind of assay: sandwich ELISA, AT120 coated, no tau added (background), detection with biotinylated BT2 and HT7.
The target in assay [4] is affinity-purified human normal tau (human) (UniProt P10636). The description is as above.
Assay [5] deals with PHF-tau (human) (UniProt P10636). Kind of assay: competition ELISA on captured PHF-tau; biotinylated AT120, unlabeled competitor AT8 at 10 ug/ml.
The target is the same in assay [6]. Kind of assay: sandwich ELISA, AT120 coated, tau spiked in tau-negative CSF, detection with biotinylated BT2 and HT7.
The target of assay [7] is affinity-purified human normal tau (human) (UniProt P10636). The assay is described as above.
Assay [8] has as its target PHF-tau (human) (UniProt P10636). Description: competition ELISA on captured PHF-tau; biotinylated AT120, unlabeled competitor AT120 at 10 ug/ml.
Assay [9] has the same target. Kind of assay: competition ELISA on captured PHF-tau; biotinylated BT2, unlabeled competitor BT2 at 10 ug/ml.
Assay [10] shares this target. Kind of assay: competition ELISA on captured PHF-tau; biotinylated BT2, unlabeled competitor AT120 at 10 ug/ml.

On to monoclonal antibody AT8, for which the values for the absorbance with PHF-tau (human) [1] and with PHF-tau (human) [2] were 0.372 absorbance and 0.001 absorbance, respectively.
monoclonal antibody AT120: the absorbance at 0 pg/ml (blank) (milliabsorbance units) with PHF-tau (human) [3] was found to be 92. Besides, the absorbance at 0 pg/ml (blank) (milliabsorbance units) in assay [4] was 87. For the same substance, in the assay with PHF-tau (human) [5], the absorbance is 0.476 absorbance. Moreover, in the assay with PHF-tau (human) [6], the absorbance at 10 pg/ml (milliabsorbance units) is 143, the absorbance at 20 pg/ml (milliabsorbance units) is 257, the absorbance at 40 pg/ml (milliabsorbance units) came to 566 and the absorbance at 80 pg/ml (milliabsorbance units) was found to be 901. This substance also showed an absorbance at 160 pg/ml (milliabsorbance units) with PHF-tau (human) [6] of 1680. Further, in assay [7], the absorbance at 10 pg/ml (milliabsorbance units) came to 154, the absorbance at 20 pg/ml (milliabsorbance units) is 256, the absorbance at 40 pg/ml (milliabsorbance units) was 678 and the absorbance at 80 pg/ml (milliabsorbance units) is 970. This substance yielded an absorbance at 160 pg/ml (milliabsorbance units) in assay [7] of 1610. Further, in the assay with PHF-tau (human) [8], the absorbance was found to be 0.001 absorbance.
In the case of monoclonal antibody BT2, the absorbance with PHF-tau (human) [9] amounted to 0.054 absorbance; in the assay with PHF-tau (human) [10] it was 0.543 absorbance.
